B1: TPR t1 (parent)
chain: GACCAAUCUGCCCUCAGAGCUCGAGAACAUCUUCGGAUGCAGAGGAGGCAGGCUUCGGUGGCGCGAUAGCGCCAACGUCCUCAACCUCCAAUGCAUCCCACCACAUGAUGAUGCCUGAAGAGCCUUGGUUUUUUG

Variants of: B1
Experiment: polymerase ribozyme fitness, log enrichment relative to wild type (log ratio); higher = more active; in vitro selection for triplet polymerase activity
Outline: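 Frozen incubation at −7 °C formed the core of a single, triplicate in vitro selection round applied to PCR-built, transcribed mutant libraries of each subunit of a heterodimeric triplet polymerase ribozyme. Extended constructs were gel-excised, captured with streptavidin beads and amplified by RT-PCR, and input and output libraries were Illumina-sequenced with a filter of ≥10 input reads and ≥1 read per output. Fitness is the logarithm of genotype enrichment relative to wild-type enrichment, with inverse-variance-weighted replicate averaging, and the logarithm is base 2.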

Variant | polymerase ribozyme fitness (log ratio)
C4U G60U | -0.43
C4U G61C | -2.8
C4U G61U | -0.685
C4U G63A | -1.64
C4U G63U C124G | 0.825
C4U G69A | -2.91
C4U G69C C82A C88G A91U U106A | -5.66
C4U G69U | -0.399
C4U G71A G77U | -1.79
C4U G71U | -0.506
C4U G110A | -1.37
C4U G110U | -1.93
C4U G135U | -1.43
C4U U9G A24U G57C G58U A84G C85A C114G C123G | -7.47
C4U U54A C62G G93C G120U U130C | -5.69
C4U U59A | -0.304
C4U U59A C62A A100C U106A C124G | -0.734
C4U U78C | -0.902
C4U U109A | -5.02
A5C A6U G69U A121G | 2.34
A5C A6U U32C G69C | -1.62
A5C A18C C123A U130A | -1.87
A5C A18G | -4.19
A5C A18G G63C C88A C101A G120U | -4.57

Variant | polymerase ribozyme fitness (log ratio)
A5C A24U | -5.29
A5C A26U | -5
A5C A37U G39C C86A C124G | -3.87
A5C A118U U133A | -1.14
A5C C8A A37C G42U C104U | -2.13
A5C C8G C40U U112G U133G | -0.864
A5C C12U | 0.118
A5C C12U G48A | -0.983
A5C C13U A83G | -1.43
A5C C13U A84C U131A | -2.02
A5C C15G G61A C114U | -6.53
A5C C15G U54G C89U U116G G117A C124G | 0.693
A5C C20A A43C G44C G71A C97U U106A C115A | -6.63
A5C C22A | -4.57
A5C C28U G57C | -3.47
A5C C28U U59C C123U | -3.1
A5C C49G C53A U54G C98U U106A G128U | -2.13
A5C C49U C53A | -1.24
A5C C53G U92G G117C U129C U133C | -5.53
A5C C62U | -0.355
A5C C72A U96A G127A | -2.31
A5C C72U C82G U87A C123G | -3.15
A5C C73A C102A | -2.49
A5C C79U C104A | -2.03

Variant | polymerase ribozyme fitness (log ratio)
A5C C98U U112A G128C | -4.48
A5C C115U G120A G122A U134G | -4.36
A5C G10A C34A G63U C123U | -4.02
A5C G17U G120A | -3.4
A5C G19A C89A C124G | -1.76
A5C G23U G71C U112C U126A U131A | -4.82
A5C G35A A41U U112A | -5.8
A5C G39U C64A A68U U116C G127U | -5.8
A5C G44A A111U | -5.64
A5C G45A A83C U87G G120A U131A | -0.712
A5C G45U C62U | -1.97
A5C G45U C73G U81C G120A G122U | -3.02
A5C G47A A66G | -3.08
A5C G47U G48C G71A C102A | -6.35
A5C G48A | -1.85
A5C G48A C82G | -1.18
A5C G51A C62U U78G | -3.87
A5C G51A C86G | -4.05
A5C G60A C101U | -0.437
A5C G60C | -0.361
A5C G63A G69U C101U | -1.54
A5C G63C C114U | -2.9
A5C G71U C82A C101G | -2.98
A5C G117C | -3.15

Variant | polymerase ribozyme fitness (log ratio)
A5C U7C A74C A90U | -1.47
A5C U7C G17U C86G | -3.53
A5C U9G | 0.0336
A5C U38G U96C C104U | -2.11
A5C U81A | -1.65
A5C U112G U130C | -0.277
A5G A6C C11G C73A G93C | -1.55
A5G A6U A46G C123A | 0.996
A5G A26C A100U U106A C124A | -1.48
A5G A26U U32C | -2.95
A5G A29C | -1.82
A5G A83C U126A | -1.99
A5G A103C C104A | -3.08
A5G C8G G47A G69U C80G | -3.96
A5G C11A G58U | -1.23
A5G C11G A16G G63U A74C G77U A95C G117U | -2.32
A5G C11G C28U U59G A118G G127U G135U | -2.91
A5G C11U G48U G69A U131C | -3.72
A5G C12A U59C | 0.0118
A5G C12A U132A U133A | -1.41
A5G C12U G113U U125C | -2.74
A5G C13A G61A | -1.98
A5G C13U A46U C56A C72G U78A G110A | -3.02
A5G C13U A103U | -4.92

Variant | polymerase ribozyme fitness (log ratio)
A5G C15A G61A | -0.776
A5G C15U C72A C101U C124U | 0.428
A5G C53A | 0.65
A5G C70G G71U G120A U131A | -4.58
A5G C72G U87A A118U | -1.92
A5G C85U G113U G122U | -3.92
A5G C89U | -0.12
A5G C101A C115A | -0.823
A5G C114G | -2.13
A5G G10U C72G C86U C97U C114A | -3.98
A5G G36A C53G C73U C80A C82G | -1.5
A5G G36U A46U G60U A91G U106A | -4.94
A5G G45C G69A | -2.95
A5G G47U | -1.19
A5G G47U C62A G71C | -1.95
A5G G48U G69A C89U C98U A121G | -3.81
A5G G51A A84C C89U U106A U112C | -2.68
A5G G52C C70G C82U | -3.85
A5G G52U U92C C114G | -5.18
A5G G57A G69C | -1.65
A5G G57U A100U | -1.5
A5G G60A | -0.271
A5G G61C C104A | -2.73
A5G U32G A50C C101U G113C C114U U131C | -5.64

Variant | polymerase ribozyme fitness (log ratio)
A5G U38G G48C G69U C79A | -2.33
A5G U54C G69C A118G U129A | -2.84
A5G U54C G69U A118G U129A | -1.19
A5G U54G C88A | -0.448
A5G U54G G69U | -0.999
A5G U55C C72A C73A G77U A121C | -1.86
A5G U78A G120C | 0.799
A5G U133A | -0.954
A5U A6C G63U | -1.11
A5U A6G C86A C102A | -3.72
A5U A6G G69U C86A C102A | -2.02
A5U A18C G57U C72U | -2.48
A5U A18U C88U | -2.74
A5U A26G | -2.87
A5U A29G A46G C82G G120A | -1.34
A5U A29U G71A U78G C123A G128U | -4.18
A5U A41G U55A C70G | -3.9
A5U A41U G69U | 0.0184
A5U A43G C102A U116C | -5.9
A5U C11A C115G | -6.5
A5U C11G A16U G60U A103C | -5.34
A5U C11G A29G G63A U87G | -1.98
A5U C11U G63C C80A A105C G113U | -5.39
A5U C12A A90G | -0.323

Variant | polymerase ribozyme fitness (log ratio)
A5U C12U A18G C80U C114U | -4.01
A5U C13G A75C C76A | -1.8
A5U C13G C40U U55A U59A C82G | -2.63
A5U C13G C49A G63U U81G A121C | -3.63
A5U C13G C53G A118U | -2.18
A5U C13G C72A C73U U106C | -3.49
A5U C13U A37U G44C U78G C98U | -4.45
A5U C13U U21C C88U G120U | -0.379
A5U C13U U78G C82A C104U U109C | -6.49
A5U C15G G71C A84U | -4.19
A5U C20A C40A G113C C115U | -4.07
A5U C20G A121C C123U | -3.97
A5U C22A U112A | -2.64
A5U C40A | -2.19
A5U C49G G51A A74U C82A | -4.76
A5U C56G A74U G110A U116G C124G G135U | -6.08
A5U C56U A91C U112G | -1.59
A5U C62G | -1.69
A5U C64U C80A C88U A95U | -4.14
A5U C70G A119G | -0.737
A5U C70U | -0.781
A5U C70U C89U G110U | -2.97
A5U C72G U81C | -1.14
